Assay results from article doi:10.1101/2021.11.29.470362 (bioRxiv, 2021).

B1: IgG 15033 (antibody, V domains shown)
VH: EVQLVESGGGLVQPGGSLRLSCAASGFDLGGYSMHWVRQAPGKGLEWVAGIYASGGATAYADSVKGRFTISADTSKNTAYLQMNSLRAEDTAVYYCARSYYYGGFGMDYWGQGTLVTVSS
VL: DIQMTQSPSSLSASVGDRVTITCRASQSVSSAVAWYQQKPGKAPKLLIYSASDLYSGVPSRFSGSRSGTDFTLTISSLQPEDFATYYCQQSYRYPITFGQGTKVEIK
B2: peptide-IgG 33^HR1 (peptide R1 fused to the N-terminus of the HC of IgG 15033) (antibody, V domains shown)
VH: B1 VH
VL: B1 VL
B3: peptide-IgG 33^LN1 (peptide N1 fused to the N-terminus of the LC of IgG 15033) (antibody, V domains shown)
VH: B1 VH
VL: B1 VL

These binders were tested against SARS-CoV-2 S-protein extracellular domain (ECD) (SARS-CoV-2, Wuhan-Hu-1 (ancestral), biotin, site-specific (BirA reaction) on the AviTag) (assay: BLI).

Point of comparison: B1, Kd 100 pM. Against it:
- B2 — lower, < 1 pM
- B3 — lower, < 1 pM
